Laboratory results published in CN111333730A (NANJING RONGJIEKANG BIOTECHNOLOGY CO LTD, dated 2020).

Biological target: T1, 人源EpCAM重组胞外结构域蛋白 (human, UniProt P16422 24-265)
T1 construct: range 24-265; Made in-house in 293F cells from pcDNA3.4; coated on ELISA plates; also called EpCAM重组蛋白; 人源重组EpCAM
T1 sequence: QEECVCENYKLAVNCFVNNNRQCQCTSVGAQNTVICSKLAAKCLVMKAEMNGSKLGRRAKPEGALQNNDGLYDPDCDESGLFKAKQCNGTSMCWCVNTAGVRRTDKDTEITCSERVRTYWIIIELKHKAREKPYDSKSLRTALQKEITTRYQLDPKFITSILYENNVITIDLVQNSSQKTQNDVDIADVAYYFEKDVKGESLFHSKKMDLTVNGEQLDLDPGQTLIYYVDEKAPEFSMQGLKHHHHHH
Assay: ELISA, coated human recombinant EpCAM, anti-HA-HRP detection

B1: 单域抗体 4C9 (VHH)
VHH: ESGGGSVQAGGSLRLSCAASEYTWSTTCMGWFRQAPGKEREGVAALYTRRGSTYYADSVKGRFTISRDNAENTVYLQMNSLKPEDTAMYYCASGPSTDFSCDYRRSNGYNYWGQGTQVTVSS
EC50: 1.96 nM
